{"source": "patent US20240218070A1", "about": "(MERUS N V, published 2024)", "binders": {"B1": {"name": "Analog reference TGF-βRII antibody TGF1 (antibody, human IgG1, kappa, V domains shown)", "VH": "QLQVQESGPGLVKPSETLSLTCTVSGGSISNSYFSWGWIRQPPGKGLEWIGSFYYGEKTYYNPSLKSRATISIDTSKSQFSLKLSSVTAADTAVYYCPRGPTMIRGVIDSWGQGTLVTVSS", "VL": "EIVLTQSPATLSLSPGERATLSCRASQSVRSYLAWYQQKPGQAPRLLIYDASNRATGIPARFSGSGSGTDFTLTISSLEPEDFAVYYCQQRSNWPPTFGQGTKVEIKR"}}, "key": {"[1]": {"molecular_target": "T1, human TGF-βRII expressed on cells (human, UniProt P37173 23-567)", "T1 sequence (P37173 23-567 limits assumed, form in doubt)": "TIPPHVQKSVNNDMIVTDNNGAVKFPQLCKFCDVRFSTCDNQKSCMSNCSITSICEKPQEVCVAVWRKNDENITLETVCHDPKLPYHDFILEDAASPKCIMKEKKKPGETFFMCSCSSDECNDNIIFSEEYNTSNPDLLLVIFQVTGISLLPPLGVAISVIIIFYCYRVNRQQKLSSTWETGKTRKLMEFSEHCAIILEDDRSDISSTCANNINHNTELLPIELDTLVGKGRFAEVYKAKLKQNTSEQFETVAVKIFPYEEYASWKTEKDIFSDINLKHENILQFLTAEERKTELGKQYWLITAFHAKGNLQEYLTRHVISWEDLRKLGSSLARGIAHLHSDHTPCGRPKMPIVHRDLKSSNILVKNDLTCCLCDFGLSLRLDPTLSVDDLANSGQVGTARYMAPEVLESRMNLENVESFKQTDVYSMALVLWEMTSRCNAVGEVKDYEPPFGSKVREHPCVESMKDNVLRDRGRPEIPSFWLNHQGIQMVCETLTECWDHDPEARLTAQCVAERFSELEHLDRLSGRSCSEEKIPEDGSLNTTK", "assay": "cell-based or functional assay"}, "[2]": {"molecular_target": "T1, human TGF-βRII expressed on cells", "assay": "cell-based or functional assay", "remark": "listed apart in the source"}}}
{"binder": "B1", "values": [{"measurement": "IL-11 IC50, TGF-β1-stimulated primary colon CAFs", "setting": "[1]", "result": 0.0526, "unit": "µg/mL"}, {"measurement": "pSMAD2 IC50, TGF-β1-stimulated primary colon CAFs", "setting": "[1]", "result": 0.00929, "unit": "ug/ml"}, {"measurement": "Primary CAF IL-11 IC50, BLDA", "setting": "[2]", "result": 1.04, "unit": "µg/mL"}, {"measurement": "Primary CAF IL-11 IC50, COAD(1)", "setting": "[2]", "result": 1.22, "unit": "µg/mL"}, {"measurement": "Primary CAF IL-11 IC50, COAD(2)", "setting": "[2]", "result": 0.313, "unit": "µg/mL"}, {"measurement": "Primary CAF IL-11 IC50, GBM", "setting": "[2]", "result": 0.264, "unit": "µg/mL"}, {"measurement": "Primary CAF IL-11 IC50, HNSC", "setting": "[2]", "result": 20.2, "unit": "µg/mL"}, {"measurement": "Primary CAF IL-11 IC50, LUAD", "setting": "[2]", "result": 0.765, "unit": "µg/mL"}, {"measurement": "Primary CAF IL-11 IC50, LUSC", "setting": "[2]", "result": 0.085, "unit": "µg/mL"}, {"measurement": "Primary CAF IL-11 IC50, MEL", "setting": "[2]", "result": 0.588, "unit": "µg/mL"}, {"measurement": "Primary CAF IL-11 IC50, OV", "setting": "[2]", "result": 0.191, "unit": "µg/mL"}, {"measurement": "Primary CAF IL-11 IC50, PAAD", "setting": "[2]", "result": 0.38, "unit": "µg/mL"}, {"measurement": "Primary CAF pSMAD IC50, BLDA", "setting": "[2]", "result": 0.087, "unit": "ug/ml"}, {"measurement": "Primary CAF pSMAD IC50, COAD(1)", "setting": "[2]", "result": 0.081, "unit": "ug/ml"}, {"measurement": "Primary CAF pSMAD IC50, COAD(2)", "setting": "[2]", "result": 0.023, "unit": "ug/ml"}, {"measurement": "Primary CAF pSMAD IC50, GBM", "setting": "[2]", "result": 0.048, "unit": "ug/ml"}, {"measurement": "Primary CAF pSMAD IC50, HNSC", "setting": "[2]", "result": 0.714, "unit": "ug/ml"}, {"measurement": "Primary CAF pSMAD IC50, LUAD", "setting": "[2]", "result": 0.078, "unit": "ug/ml"}, {"measurement": "Primary CAF pSMAD IC50, LUSC", "setting": "[2]", "result": 0.125, "unit": "ug/ml"}, {"measurement": "Primary CAF pSMAD IC50, MEL", "setting": "[2]", "result": 0.117, "unit": "ug/ml"}, {"measurement": "Primary CAF pSMAD IC50, OV", "setting": "[2]", "result": 0.188, "unit": "ug/ml"}, {"measurement": "Primary CAF pSMAD IC50, PAAD", "setting": "[2]", "result": 0.126, "unit": "ug/ml"}]}
